Common to all, as to test: IEDB peptide-MHC binding, purified MHC/competitive/radioactivity; filed as Kd, often an IC50 or EC50 that approximates it; ≥ and ≤ were set here for values at or beyond the usual limits of such assays
The target in assay [1] is HLA-A*02:02.
Assay [2] deals with HLA-A*02:03.
In assay [3] the target is HLA-A*02:06.
Where [4] appears, read: source organism: Vaccinia virus WR.
The mark [5] stands for this setting: source organism: Dengue virus 4 Philippines/H241/1956.
Setting [6] is: source organism: SARS coronavirus Tor2.
The mark [7] stands for this setting: source organism: Dengue virus 2 Jamaica/1409/1983.
The mark [8] stands for this setting: source organism: Dengue virus 3 Martinique/1243/1999.
Setting [9] is: source organism: Mammarenavirus juninense.

Take ETIEILRNYL: the Kd in assay [1] (setting [4]) came out at 474 nM; in assay [2] (setting [4]), 1410 nM; in assay [3] (setting [4]) it was 0.276 nM.

For the sequence IVNNFITKEI, the Kd in assay [1] (setting [4]) amounted to 1470 nM; in assay [2] (setting [4]) it was 192 nM; in assay [3] (setting [4]), 14200 nM.

With RIASILSLET, the Kd in assay [1] (setting [4]) came to 583 nM; in assay [2] (setting [4]), 449 nM; in assay [3] (setting [4]) it was 751 nM.

On to LAIKNYYRKT, for which the results for the equilibrium dissociation constant (Kd) in assay [1] (setting [4]), in assay [2] (setting [4]) and in assay [3] (setting [4]) were at least 36800 nM, 7180 nM and at least 69800 nM, respectively.

Regarding KTANNYETI, the Kd in assay [1] (setting [4]) was found to be 37.2 nM; in assay [2] (setting [4]), 38.5 nM; in assay [3] (setting [4]) it was 329 nM.

In the case of ILKDPRIASI, the Kd in assay [1] (setting [4]) is 3160 nM; in assay [2] (setting [4]), 1030 nM; in assay [3] (setting [4]), 4000 nM.

Consider AVYFKAKWLT, for which the Kd is at least 27200 nM in assay [1] (setting [4]), 8930 nM in assay [2] (setting [4]) and 8710 nM in assay [3] (setting [4]).

Consider LVVVTTLCAI, for which the Kd in assay [3] (setting [5]) worked out at 91.2 nM.

For VLIFILLTA, in assay [2] (source organism: Dengue virus 2 Peru/IQT2913/1996), the dissociation constant (Kd) turned out to be 140 nM.

In the case of SADNHPKMI, the values for the dissociation constant (Kd) in assay [1] (setting [4]), in assay [2] (setting [4]) and in assay [3] (setting [4]) were 8180 nM, at least 43500 nM and at least 77100 nM, respectively.

In the case of KTRLFRSPQV, the values for the dissociation constant (Kd) in assay [1] (setting [4]), in assay [2] (setting [4]) and in assay [3] (setting [4]) were 9270 nM, 984 nM and 433 nM, respectively.

Turning to MIGNYFSGVL, the Kd in assay [1] (setting [4]) is 712 nM; in assay [2] (setting [4]) it was 761 nM; in assay [3] (setting [4]), 1310 nM.

As to DMDFDLNIFM, the results for the dissociation constant Kd in assay [1] (setting [4]), in assay [2] (setting [4]) and in assay [3] (setting [4]) were 1150 nM, at least 5000 nM and 5310 nM, respectively.

Consider LAFVVFLLV, for which the figures for the Kd in assay [1] (setting [6]), in assay [2] (setting [6]) and in assay [3] (setting [6]) were 458 nM, 1270 nM and 253 nM, respectively.

In the case of ALMTLDDLAI, the equilibrium dissociation constant (Kd) stood at 14.2 nM in assay [1] (setting [4]), 29.3 nM in assay [2] (setting [4]) and 24.1 nM in assay [3] (setting [4]).

As to ALKNSQAELT, the Kd was 2120 nM in assay [1] (setting [4]), 980 nM in assay [2] (setting [4]) and at least 27200 nM in assay [3] (setting [4]).

With AINKCVDIFT, the Kd was at least 25300 nM in assay [1] (setting [4]), at least 26400 nM in assay [2] (setting [4]) and at least 38600 nM in assay [3] (setting [4]).

Take TILDDNLYKV: the figures for the Kd in assay [1] (setting [4]), in assay [2] (setting [4]) and in assay [3] (setting [4]) were 1080 nM, 1630 nM and 48.8 nM, respectively.

Turning to RVSENTGMGM, the Kd in assay [1] (setting [4]) was found to be 839 nM; in assay [2] (setting [4]), 88.9 nM; in assay [3] (setting [4]) it was 146 nM.

With VIRHVDGKI, the Kd in assay [1] (setting [4]) was determined as 8550 nM; in assay [2] (setting [4]), 978 nM; in assay [3] (setting [4]), 9270 nM.

On to NQILEENMEV, for which the Kd in assay [3] (setting [5]) was 29.1 nM.

RTNDLTALL: the dissociation constant Kd in assay [1] (setting [4]) was 3.66 nM; in assay [2] (setting [4]), 7.23 nM; in assay [3] (setting [4]), 119 nM.

AIMTRCLAV: the figures for the Kd in assay [1] (setting [6]), in assay [2] (setting [6]) and in assay [3] (setting [6]) were 51.5 nM, 14.7 nM and 26.8 nM, respectively.

In the case of TMWHVTRGAV, in assay [2] (setting [7]), the Kd turned out to be 382 nM.

With GLAFSIMKSV, the dissociation constant Kd in assay [2] (setting [8]) came out at 11.6 nM.

Regarding MMILPAALA, in assay [2] (source organism: Dengue virus 3 Sri Lanka/1266/2000), the Kd was found to be 46.4 nM.

With IMKDGREIV, the Kd in assay [2] (source organism: Dengue virus 1 Brazil/97-11/1997) turned out to be 110 nM.

As for FLARKGIDT, the dissociation constant (Kd) in assay [1] (setting [4]) was 1020 nM; in assay [2] (setting [4]) it was 318 nM; in assay [3] (setting [4]), 3040 nM.

In the case of VTKRDESSI, the Kd is 8050 nM in assay [1] (setting [4]), 2140 nM in assay [2] (setting [4]) and at least 38300 nM in assay [3] (setting [4]).

In the case of FTSYKRFVT, the equilibrium dissociation constant (Kd) is 2330 nM in assay [1] (setting [4]), 3380 nM in assay [2] (setting [4]) and 12400 nM in assay [3] (setting [4]).

Turning to CNYTKFWYV, the Kd in assay [1] (setting [9]) was found to be 1940 nM; in assay [2] (setting [9]), 794 nM; in assay [3] (setting [9]), 34.5 nM.

In the case of NVIEDITFL, the values for the Kd in assay [1] (setting [4]), in assay [2] (setting [4]) and in assay [3] (setting [4]) were 146 nM, 300 nM and 25.8 nM, respectively.

Regarding DIMLPESDL, the dissociation constant Kd in assay [1] (setting [4]) is 18500 nM; in assay [2] (setting [4]), at least 35800 nM; in assay [3] (setting [4]), at least 31600 nM.

In the case of GLSDRVVFV, the Kd turned out to be 1.04 nM in assay [1] (setting [6]), 1.07 nM in assay [2] (setting [6]) and 68.6 nM in assay [3] (setting [6]).

Regarding ITRLEVIGL, the Kd in assay [1] (setting [4]) came to 5510 nM; in assay [2] (setting [4]), 213 nM; in assay [3] (setting [4]) it was 776 nM.

Take NQAVVLMGL: the Kd in assay [3] (setting [8]) worked out at 88.4 nM.

As for EVIGLTTHCT, the dissociation constant (Kd) in assay [1] (setting [4]) amounted to 10500 nM; in assay [2] (setting [4]), 14900 nM; in assay [3] (setting [4]), 12200 nM.

With TLKYPIEHGI, in assay [3] (source organism: Homo sapiens), the Kd was at least 26400 nM.

Regarding FLAFVVFLLV, the Kd in assay [1] (setting [6]) was determined as 2.36 nM; in assay [2] (setting [6]), 211 nM; in assay [3] (setting [6]), 2980 nM.

As to HVLGRLITV, in assay [3] (setting [7]), the Kd turned out to be 8.84 nM.

A word on the Kd: it is the constant that tells how readily two partners part at equilibrium.

The values are drawn from the Immune Epitope Database (IEDB).
